The values that follow come from a protein production outcome set (Wang et al. 2014).

This data set can be described thus: label from the status in PepcDB records.
For the sequence “MLKGPLKGCLNMSKKVIVIAGTTGVGKSQLSIQLAQKFNGEVINSDSMQVYKDIPIITNKHPLQEREGIPHHVMNHVDWSEEYYSHRFETECMNAIEDIHRRGKIPIVVGGTHYYLQTLFNKRVDTKSSERKLTRKQLDILESTDPDVIYNTLVKCDPDIATKYHPNDYRRVQRMLEIYYKTGKKPSETFNEQKITLKFDTLFLWLYSKPEPLFQRLDDRVDDMLERGALQEIKQLYEYYSQNKFTPEQCENGVWQVIGFKEFLPWLTGKTDDNTVKLEDCIERMKTRTRQYAKRQVKWIKKMLIPDIKGDIYLLDATDLSQWDTNASQRAIAISNDFISNRPIKQERAPKALEELLSKGETTMKKLDDWTHYTCNVCRNADGKNVVAIGEKYWKIHLGSRRHKSNLKRNTRQADFEKWKINKKETVE”, the protein production entry is “failed”.

Regarding “MLKHLDRSKKGKVARSFLQAISKDEAVAPPLRVVQIEGLAVLKIIKHCKEFSPTLVTGQLLGLDVGSVLEVTNCFPFPVRDDDEEIEADGANYQLEMMRCLREVNVDNNTVGWYQSTVLGSYQTVELIETFMNYQENIKRCVCIIYDPSKADLGVLALKALKLSDSFMELYRGGNFTGEKLREKNFSWMDIFEEIPIKVSNSALVSAFMTELETDTPVSQGDYDRLHSSTTPFLENNMEFLIKCMDDLSMEQQKFQYYYRNLSRQQAQQQAWLQKRRTENMARKSAGEEPLPEEDPSNPIFKAIPEPSRLESFLITNQVSNFCGQINGVAGQNFSRLYLTKALHDN”, the protein production entry is given as “failed”.

For “MLKIFSTQLSGYFSRVSQKEEMNIEDSARLLAQALVGEGFIYLHGTNEMEGVVAEALFGAEPMKQAKRLFENGKEVEVTSADRVLLISRFSTDEEVVAIAKKLQADGHSIVGISAIQEGNESLEQYTDVHIDTKLLKGLIPDDEGNRYGFPSLMIALFAYHGIKFTIDEMLNEY”, the protein production result is reported as “not failed”.

As for “MLKILKRIVQDVTAASDLKEALGILVQRINTAINAEAVSVYLIDNKNAEYVLIATEGLNKQAEFRVRIALDCGLIGLIGRREEPINIENAPSHPDFYHNPLIGEDHLNAFLGVPIIQHRKLYGVLVVQQLEQRYFDDAEESFLITLAAQLGGIIAHAEATGELAELTQ”, the protein production result was “failed”.

As for “MLKKEYLKNPYLVLFAMIILAYVFSVLCRFYWIWWASEFNEYFFNNQLMIISNDGYAFAEGARDMIAGFHQPNDLSYYGSSLSTLTYWLYKITPFSFESIILYMSTFLSSLVVIPIILLANEYKRPLMGFVAALLASVANSYYNRTMSGYYDTDMLVIVLPMFILFFMVRMILKKDFFSLIALPLFIGIYLWWYPSSYTLNVALIGLFLIYTLIFHRKEKIFYIAVILSSLTLSNIAWFYQSAIIVILFALFALEQKRLNFMIIGILGSATLIFLILSGGVDPILYQLKFYIFRNDESANLTQGFMYFNVNQTIQEVENVDFSEFMRRISGSEIVFLFSLFGFVWLLRKHKSMIMALPILVLGFLALKGGLRFTIYSVPVMALGFGFLLSEFKAILVKKYSQLTSNVCIVFATILTLAPVFIHIYNYKAPTVFSQNEASLLNQLKNIANREDYVVTWWDYGYPVRYYSDVKTLVDGGKHLGKDNFFPSFALSKDEQAAANMARLSVEYTEKSFYAPQNDILKSDILQAMMKDYNQSNVDLFLASLSKPDFKIDTPKTRDIYLYMPARMSLIFSTVASFSFINLDTGVLDKPFTFSTAYPLDVKNGEIYLSNGVVLSDDFRSFKIGDNVVSVNSIVEINSIKQGEYKITPIDDKAQFYIFYLKDSAIPYAQFILMDKTMFNSAYVQMFFLGNYDKNLFDLVINSRDAKVFKLKI”, the protein production result was “failed”.

As for “MLKKIDDSESLLDTAALAPLQRFVERECRLLDEQRFEEWLALYLPEATYWAPATRDNPDPDSQVSLFWDDKETMQTRVQRLLHPEIHSQIPASVTVRLTSNFRAAVAPGGEKDAYQVECRFIMVEDRLGSPRQQFAGTFNYLLVQNGAAFRIRQKRVDLTNCDHAFHTLTQPF”, the protein production entry is recorded as “not failed”.

Take “MLKSKIKEEYVQMDQVDWKPFPAAFSTGGIRWKLLHVSPEMGSWTAIFDCPAGSSFAAHVHVGPGEYFLTKGKMDVRGGKAAGGDTAIAPGYGYESANARHDKTEFPVASEFYMSFLGPLTFVKPDGSPIAVIGWEDAQGAWAA”: the protein production entry is on record as “not failed”.

For the sequence “MLKTTISPIFSSFTGKPKCSSKLFFRAFSKVVLQDTPPSARRNASTNLTTLHKGPPTSAYVHLPFCRKRCHYCDFPILALGMSSSSARPSNVYEEGKEDDPRITNYVNLLVREIKATRTDFDTNPNLETVFFGGGTPSLVPPKLVSLILETLSLNFGLSPDAEISMEMDPGTFDGQKLKDLMKLGVNRVSLGVQAFQDELLKACGRAHGVSQVYEAIEFVKECGVENWSMDLISSLPHQTLEMWEESLRLAIESQPNHVSVYDLQVEQGTKFGNLYTPGQSPLPSETQSAEFYKTASSMLRGAGYEHYEVSSYSRDGFKCKHNLIYWKNKPFYAFGLGSASYVGGLRFSRPRRLKEYTNYVADLENGAANWCGNGDVDLKDVATDILMLSFRTSKGLELKEFGEAFGSEVVKSICKVYEPYVESGHIVCLDDMRSEVMIDEFKTLVANDEVKIEDHVRYLRLKDPDGFLLSNELISLSFGVVAP”, the protein production entry was “failed”.

Consider “MLLDEIKRMSYDELKRLAEDIRKRITEVVLKNGGHLASNLGTIELTLALYRVFDPREDAIIWDTGHQAYTHKILTGRDDLFHTIRTFGGLSGFVTRRESPLDWFGTGHAGTSIAAGLGFEKAFELLGEKRHVVVVIGDGALTSGMALEALNQLKNLNSKMKIILNDNGMSISPNVGGLAYHLSKLRTSPIYLKGKKVLKKVLEKTEIGFEVEEEMKYLRDSLKGMIQGTNFFESLGLKYFGPFDGHNIELLEKVFKRIRDYDYSSVVHVVTKKGKGFTAAEENPTKYHSASPSGKPKMLSYSELLGHTLSRVAREDKKIVAITAAMADGTGLSIFQKEHPDRFFDLGITEQTCVTFGAALGLHGMKPVVAIYSTFLQRAYDQIIHDVALQNAPVLFAIDRSGVVGEDGPTHHGLFDINYLLPVPNMKIISPSSPEEFVNSLYTVLKHLDGPVAIRYPKESFYGEVESLLENMKEIDLGWKILKRGREAAIIATGTILNEVLKIPLDVTVVNALTVKPLDTAVLKEIARDHDLIITVEEAMKIGGFGSFVAQRLQEMGWQGKIVNLGVEDLFVPHGGRKELLSMLGLDSEGLTKTVLTYIKARSREGKV”, for which the protein production entry is listed as “failed”.

In the case of “MLLEPLKQLKQADARLNMTQGVLEGVVGEELGVLPGMDSIFSMLELERLVGFFRQATRKNHKGKPFDVIIYDGISTEETLRMIGLSSKTRLYAKYLRSLAEKTDLGRLTSPSIMRFVDESMNINSNKSPFDGMTSPAMWDTLERFLETGASAWRDPERFRSFLVMDPNNPMSVKAALRYWGCTVQAGSHVSGAFAISSSHLTSQIPKADFVPLPFASASVPFTITGLDWDKILLDQANSSIRELLSETVSHGTSLTQTVMFDTAKKLVTLFMPGFEKSEIKLYQYRGGSELLIEAGDQRRVIHLPSQIQGKVGGAKFVDRSLIVTMR”, the protein production result is recorded as “failed”.

For the sequence “MLLFWLEFIGIFIAIFVSAELLAKGADELEDFLGQGITGGIILGFLTALPETIFVIVASLEGSFDVALGSAIGGNVLLFTLGIGLVGVFYAFKWRTALQISSEYSVENVFLVLTTIGMLLVLIYGKLNIISGLLLILIYVIYVVYRVAKFRREGMEREKGNLMKPVGFIIAGGVLLVVFSHYFVEYINEIAIMFNVPAIWLSLVIAPIAGELEEKISAFRLVLMSKDGGSLSILSFVGSKIENATVLLGIIGIFTDYELQQALPEYASSLIANMIALYVLFDKRLKTFESVILIGVYVIIVILSFYL”, the protein production entry is “failed”.

With “MLLFWVEFIGTFIGLFISAELIAKGADELEEVLGQGITGGILLGFITALPETIFVIIASLGGSLDVAFGSAIGGNILLFTVGAGLVGIVYFWKWKNNLVMDQEYQVENKFLIISTVALVLITLYSKLNVIAGVCLILIYVYYVIYRLRKFKRDKPIAKKEVDYVKISIFMVVGAILLIILSHYFVEQLDQISLSFGIPAVWISLVLSPIAGELEEKISAFRLITLSKKGGSLSLLSFVGSKIENNTVLLGIIGLFGDYSLRPVIPEMVSLILVNVSVLRVLFDRKLTVLESSLLIIAYAVIIIALYYL”, the protein production result is “failed”.

For the sequence “MLLGSCWRIARGVETVPYPWPKWLPIPVLATTVGVAAVVIGVRQLGLLQPSELSLYDFYVRSQPPRDPDSRILTVLVTEQDIQAQKTWPLPDATVAELLTRLNAASPRAIGLDIFRDLPQPPGHDELQNMIRINPRIIPVCKSPGETVEQPEVPPPPSIPTAQVPERVGFADIPLDSDGVIRRNLFVINNPKAQRCTTPFSFALMLALRYLEQDPSQTIKLDDKGLTLNDVHFPLLTSDAGGYVAVDDRGMQTLLKYRSRTAVGPTVSLTDVLTGRVSEDLIRDRVVLIGVSAPSIKDTFLTPYSGSDAVTQQMPGVVVHGQMVSQFLSAALEGEGPIWYWPVPLVLGWILLWAGVGSILGWWLRQPLWLGGAVVGGIIVLFGGGFGIFVMASGWIPVVPPAIALVLSSVGMVGYVSYQAQQEQKSFREKVQEQEKALALLRSLMAEDTAALNAALREPTEITGKPRSLLSGRYKIQKVLGSGGFGRTYLAQDTQRPGNPLCVVKHLRPGRTDERFMQVARRLFNTEAEILEKLGRHDQIPLLLAYVEENREFYLVQEFIDGVSLSEELKRKHTEAEAIQLLREILEVLNFVHSHYVIHRDIKPDNIIRRASDRKLVLIDFGAVKQIQPQEAERTQGSTVVIGTMGYAPPEQLSGQPTLSSDIYAVGMIVLQALTGIKPRDLPRDPRTGEVDWQQCVTVSEGLAVVLNKMVKFNFSDRYPSAKEALQDARRLGTPAASVS”, the protein production entry was “failed”.

As for “MLLILAILPIVVTVGLGVFAGLRHQFAPTTSDILIQLVMHYALPLSLFGGILSLKRATIIQNSSVALWLALGMLGGMVIVIVSQCCFHQQLETGTLRALVIASPSIPFMGVSVLLVVFGKISVLLVALGGLYMNLVQVPVSVLLLTLAGGSTPEQRWRAGWQKLCRASRQPVVWAPISAFLLNLAGLRLPSAWLTNFTELGQAAGGVALFALGLLLTTRPWRLTRMVVLNVLLKNLGLPVLIWGIMASLGVSLSNQQLVVLTLAIPTATIATMLAVQNHLAPDEYVATQMLSTVIAPLTMGFLMWGLQLV”, the protein production result was “failed”.

As for “MLLLSIYISIAIGISFICSVLEAVLLSISPSYIAQLNQQGHPAAEQLSKLKSDIDRPLASILTLNTIAHTIGAATAGAQAAVVFGSEALGIFSAVLTLAILVLSEIVPKTIGATYWRQLAPAAAVSLRWMVWALTPFVWFSEQITKRLARNHEAPKMRDELSAMAILARESGEFAEGESKILSNLLGIQDVPVTQVMTPRPVVFRVDATMTINEFLDKHKDTPFSRPLVYSEQKDNIIGFVHRLELFKMQQSGSGQKQLGAVMRPIQVVLNNTALPKVFDQMMTHRLQLALVVDEYGTVLGLVTLEDIFEHLVGEEIIDEADKSTDMQELAYQRWESWKEMHGVIESRDDDDEELEKQNVEPETQEPTKPDSKES”, the protein production entry is given as “failed”.

Consider “MLLTQYEKYKRGFKFDHVWPILKGIEKFANDNMMTPASSPSPGMNSIDLNMDSEDANFSLSSRPMGLKKTKLKQLLEQNDKLIKAITKGTSERNEIQRQKIEVDRMKEENKILFADLNSISDPSSRAYIENERKRILEKRAQTNQHEEDGEGSQYHGSQYRASHYQESPSHGKQVQGEPDQGEDQRSPNNQEDFTQYYNYLSGTENIFP”, for which the protein production entry was “failed”.

Take “MLLYIHVPFCRRKCRYCAFHSLPLIGEGGTSPAPEALQTPHADTAITAGPTAASTALAGVAPVTPSAQAISGQDGHTSTKGHGVPPESPPGPTANAAGMSGGIAGIVDRAGGAMRSCTPAEALPAYVETLFSELALWGDRLGNATVETIFFGGGTPSLLPPHVVAAILDRVHRTFSVAPGAEISLEANPESLSNRQQARGLYDAGVNRLSLGVQALDDALLHLMGRPHRARDAIRAFNAARDAGFTNISLDFIWGLPGQRLRQWLDQLREVVRLRPEHLSCYGLTLEEGTPLTADVESGSIALPVEREQAAMFMQGAERLEEAGYLQYEISNFARMGFQCHHNLGYWEGRDYLGLGPSATSTIDGLRWTNPYDHGAWHESVRTGRIGADAERLDLTVRVLELVMLRLRTTRGLRVKAYRELTGRDFLRDHKPLVHLLHRNGLVRIRDGYLRLTRNGMLVSNSILERFFERSETLLTLESTEKTHETRMAGPISGDTP”: the protein production entry is on record as “failed”.
